Results from patent US20210340207A1 (Merck Sharp & Dohme, published 2021).
*1 amine or outer side, *2 acyl side, *3 side chain or, on linkers, in order; H or OH if unused. Side-chain parts run from the residue outwards. [ ]: non-standard residue; d: D form. pAMF = para-azidomethylphenylalanine, [N-]=[N+]=NCc1ccc(C[C@H](N[*:1])C(=O)[*:2])cc1

Legend:
[1] = target: T1, Human IL-2Rβ, His tag (Table 10) (human, UniProt P14784 27-239, limits assumed); assay: SPR (Biacore T200)
T1 construct: not shown: polyhistidine tag
T1 sequence (looked up): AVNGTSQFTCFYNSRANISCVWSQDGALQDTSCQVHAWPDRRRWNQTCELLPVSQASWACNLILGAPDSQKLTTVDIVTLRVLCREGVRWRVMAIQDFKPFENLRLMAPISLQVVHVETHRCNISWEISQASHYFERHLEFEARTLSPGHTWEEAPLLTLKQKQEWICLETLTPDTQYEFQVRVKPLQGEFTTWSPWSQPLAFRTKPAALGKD
Experimental: (§1) A Surface Plasmon Resonance (SPR) assay on a Biacore T200 (GE Healthcare) instrument was used to determine the monovalent affinities of pegylated aldesleukin variants against polyhistidine-tagged or Fc-tagged IL-2 Receptors. Biacore T200 Evaluation Software was used to fit each titration series to a 1:1 binding model or steady state affinity. The association (kₒₙ, M⁻¹ s⁻¹) and dissociation (koff, s⁻¹) rate constants were determined for each set of titrations and used to calculate the dissociation constant, KD=koff/kₒₙ, of each sample against each receptor. koff/kₒₙ values are not reported herein.

[2] = target: T2, Cynomolgus/Rhesus IL-2Rβ, His tag (Table 10) (cynomolgus monkey / rhesus monkey, UniProt Q38J85 27-240); assay: SPR (Biacore T200)
T2 sequence: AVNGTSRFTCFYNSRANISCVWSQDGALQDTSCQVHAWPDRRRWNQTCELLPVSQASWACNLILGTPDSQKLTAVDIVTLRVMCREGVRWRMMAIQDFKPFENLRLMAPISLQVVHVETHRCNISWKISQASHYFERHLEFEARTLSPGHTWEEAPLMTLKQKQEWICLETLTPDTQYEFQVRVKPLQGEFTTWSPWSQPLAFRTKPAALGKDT
Experimental: as §1

[3] = target: T3, human IL-2Rβγc (on DERL-7 cells, U2OS IL2RB/IL2RG cells, CD25 knockout Kit225-STAT5 cells, primary CD8+ CTLs) (human, UniProt P14784 27-551; P31785 23-369); assay: cell-based or functional assay
T3 sequence (looked up) 1: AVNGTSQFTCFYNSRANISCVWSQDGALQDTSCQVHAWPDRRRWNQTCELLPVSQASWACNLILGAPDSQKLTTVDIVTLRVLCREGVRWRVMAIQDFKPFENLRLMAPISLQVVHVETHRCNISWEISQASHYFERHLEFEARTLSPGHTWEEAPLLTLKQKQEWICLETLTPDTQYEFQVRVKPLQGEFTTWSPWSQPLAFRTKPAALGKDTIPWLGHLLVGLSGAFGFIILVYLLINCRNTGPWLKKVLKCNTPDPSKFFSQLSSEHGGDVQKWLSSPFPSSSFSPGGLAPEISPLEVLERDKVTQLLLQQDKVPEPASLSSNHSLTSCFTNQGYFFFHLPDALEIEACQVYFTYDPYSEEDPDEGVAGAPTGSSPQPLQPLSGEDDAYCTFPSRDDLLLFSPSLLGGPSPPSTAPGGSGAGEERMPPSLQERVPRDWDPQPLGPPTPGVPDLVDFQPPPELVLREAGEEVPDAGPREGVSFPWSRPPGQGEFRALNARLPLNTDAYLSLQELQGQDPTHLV
T3 sequence (looked up) 2: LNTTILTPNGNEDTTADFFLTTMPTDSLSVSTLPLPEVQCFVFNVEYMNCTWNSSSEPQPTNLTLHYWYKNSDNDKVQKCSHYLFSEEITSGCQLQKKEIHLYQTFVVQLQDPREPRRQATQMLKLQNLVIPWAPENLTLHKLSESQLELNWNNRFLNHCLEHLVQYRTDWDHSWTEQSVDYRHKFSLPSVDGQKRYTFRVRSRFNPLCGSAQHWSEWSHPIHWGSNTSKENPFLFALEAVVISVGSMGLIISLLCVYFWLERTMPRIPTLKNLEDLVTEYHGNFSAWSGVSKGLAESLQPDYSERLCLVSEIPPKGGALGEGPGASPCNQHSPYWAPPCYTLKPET

[4] = target: T1, Human IL-2Rβ, His tag (Table 10); assay: SPR (Biacore T200), receptor captured on anti-histidine surface
Experimental: as §1
(§2) To measure the affinity of CON1 and aldesleukin for IL-2R subunits, receptors were captured on either an anti-histidine or anti-hu Fc antibody surface. […] CON1 has a six-fold lower affinity for Human and Cynomolgus/Rhesus IL-2-Rβ than aldesleukin.

[5] = target: T2, Cynomolgus/Rhesus IL-2Rβ, His tag …; assay: as above
Experimental: as §1, §2

fold lower affinity than aldesleukin [1]: 6 fold
fold lower affinity than aldesleukin [2]: 6 fold
CD25 knockout Kit225-STAT5 reporter, fold lower activity than aldesleukin [3]: 24 fold
KD/KD (human) [4]: 1 ratio
Kd [4]: 4.4 µM
KD/KD (human) [5]: 1.2 ratio
Kd [5]: 5.4 µM
B1: Ald_S4pAMF(PEG1)/R37A/F41K (CON1) (ligand)
chain: PTS[pAMF]([DBCO‑triazole-mPEG 30 kDa])STKKTQLQLEHLLLDLQMILNGINNYKNPKLTAMLTKKFYMPKKATELKHLQCLEEELKPLEEVLNLAQSKNFHLRPRDLISNINVIVLELKGSETTFMCEYADETATIVEFLNRWITFSQSIISTLT
modifications: not fully specified (bridges)
notes: also called Des-A1_IL-2_S4pAMF(PEG1)/R37A/F41K/C124S
